# According to US20240110154A1, “Engineered NKT Cells for Expansion and In Vivo Preservation and Methods of Use for the Control of Tumor Cells” (Baylor College of Medicine, priority 2021, published 2024):
# System: NKTs
# Experiment: CD62L expression by flow cytometry on day 12 after antigenic stimulation of NKTs treated with Wnt activators
# Type: cell-based, human
# Conditions: for development of CD62L+ NKTs: day 12
# Procedure: PBMC of healthy donors (at least 18 years old) are isolated by gradient centrifugation from buffy coats purchased from Gulf Coast Regional Blood Center. NKTs are purified by anti-iNKT microbeads (Miltenyi Biotec). The negative PBMC fraction is irradiated (40 Gy) and aliquoted. NKTs are stimulated with an aliquot of autologous PBMCs pulsed with 100 ng/niL αGalCer (Kyowa Hakko Kirin). Recombinant IL-2 (200 U/ml, National Cancer Institute Frederick) is added every other day in complete RPMI (HyClone RPMI 1640, 10% heat inactivated fetal bovine serum and 2 mM Glutamax). NKTs are expanded for 10 days and then re-stimulated with autologous PBMC (irradiated with 40 Gy) or Ramos cells as aAPC (irradiated with 100 Gy) when indicated. On day 3 after re-stimulation, 24 well, non-tissue culture plates are coated with retronectin (Takara Bio) and after washing inoculated with 1 ml of retroviral supernatant containing the constructs shown in FIG. 27 and described above and spun for 60 min at 4600 G. The viral supernatant is then removed and stimulated NKTs are added to the wells in complete media and 200 U/ml rhIL-2. Cells are removed from the plate after 48 h, washed, re-suspended at the concentration 10^6 cell/ml in complete RPMI with 200 U/ml IL-2 and plated for continued expansion. NKT-cell number is determined by Trypan Blue (Life technologies) counting. When indicated, NKTs or CAR-NKTs are labeled with CD62L-PE mAb (GREG-56, BD Biosciences) and anti-PE microbeads (Miltenyi) followed by magnetic sorting into CD62L+ and CD62L− subsets according to the manufacturer's instructions. The phenotype of the sorted cells was determined by FACS.
# NKTs are stimulated as described in Example 2 but treated with three separate doses of PBS or 500 ng/mL Wnt3a given on day 0, 3 and 7 after antigenic stimulation. CD62L expression is examined by flow cytometry on day 12 after antigenic stimulation. […]
# Following primary stimulation, NKTs are cultured with IL-2 or IL-2/IL-21 for 12 days. […] CD62L expression is analyzed by flow cytometry at the end of expansion.
Molecule,"development of CD62L+ NKTs (one dose 5 μM on day 7 after antigenic stimulation vs DMSO, n=6 donors)","development of CD62L+ NKTs (500 ng/mL on day 0, 3 and 7 vs PBS, n=3 donors)","CD62L frequency (500 ng/ml on days 0, 1, 2, culture with IL-2 or IL-2/IL-21 for 12 days)"
"Nc1cccc(-c2cc3c(Oc4cccc(O)c4)ncnc3[nH]2)c1 [TWS119, reference compound]",promotes development of CD62L+ NKTs,–,–
"Wnt3a: recombinant Wnt3a, Wnt ligand (protein, UniProt P56704 19-352, looked up) Protein Wnt-3a: SYPIWWSLAVGPQYSSLGSQPILCASIPGLVPKQLRFCRNYVEIMPSVAEGIKIGIQECQHQFRGRRWNCTTVHDSLAIFGPVLDKATRESAFVHAIASAGVAFAVTRSCAEGTAAICGCSSRHQGSPGKGWKWGGCSEDIEFGGMVSREFADARENRPDARSAMNRHNNEAGRQAIASHMHLKCKCHGLSGSCEVKTCWWSQPDFRAIGDFLKDKYDSASEMVVEKHRESRGWVETLRPRYTYFKVPTERDLVYYEASPNFCEPNPETGSFGTRDRTCNVSSHGIDGCDLLCCGRGHNARAERRREKCRCVFHWCCYVSCQECTRVYDVHTCK",–,promotes development of CD62L+ NKTs,works additively with IL-21 to increase CD62L frequency
